Three proteins from paper PMC7982547 (The Journal of Biological Chemistry, 2004) can be followed below.

In general, stoichiometry N refers to the number of molecules, sites or subunits per partner or assembly.

Data set [1] deals with the molecule itself. Nature of the data set: crystal structure.
Data set [2] deals with the molecule itself. Nature of the data set: crystal structure. This is another data set of the same source.

B1: HR1 (heptad repeat 1) region of the MHV A59 spike protein, residues 968-1027 (domain or fragment)
chain: ENQKMIASAFNNALGAIQDGFDATNSALGKIQSVVNANAEALNNLLNQLSNRFGAISASL
Consider B1, for which the “stoichiometry N” value in data set [1] came out at 3.

B2: nMHV 2-Helix (new construct of the MHV fusion core: shortened HR1, 22-residue linker, HR2) (domain or fragment)
chain: ENQKMIASAFNNALGAIQDGFDATNSALGKIQSVVNANAEALNNLLNQLSLVPRGSGGSGGSGGLEVLFQGPDLSLDFEKLNVTLLDLTYEMNRIQDAIKKLNESYINLKE
With B2, the binding result in data set [2] is “binds”.
On to ENQKMIASAFNNALGAIQDGFDATNSALGKIQSVVNANAEALNNLLNQLS (domain or fragment) [shortened HR1 region of the MHV A59 spike protein, residues 968-1017], for which, in data set [2], the binding result is on record as “binds”.
